{
  "source": "paper PMC11234212",
  "key": {"[1]": {"experiment": "RALY ubiquitination western blot"}, "[2]": {"experiment": "western blot of RALY protein"}, "[3]": {"experiment": "half-life analysis, western blot, Hep3B and Huh7", "settings": "glycan gained; control: DMSO"}, "[4]": {"settings": "glycan lost, control: RALYKO-WT"}, "[5]": {"settings": "glycan gained, control: untreated / control-transfected cells"}},
  "data": [
    {"protein": "RALY: S176A (protein) parent chain: MSLKLQASNVTNKNDPKSINSRVFIGNLNTALVKKSDVETIFSKYGRVAGCSVHKGYAFVQYSNERHARAAVLGENGRVLAGQTLDINMAGEPKPDRPKGLKRAASAIYSGYIFDYDYYRDDFYDRLFDYRGRLSPVPVPRAVPVKRPRVTVPLVRRVKTNVPVKLFARSTAVTTSSAKIKLKSSELQAIKTELTQIKSNIDALLSRLEQIAAEQKANPDGKKKGDGGGAGGGGGGGGSGGGGSGGGGGGGSSRPPAPQENTTSEAGLPQGEARTRDDGDEEGLLTHSEEELEHSQDTDADDGALQ", "values": [
      {"measurement": "other: ubiquitination", "setting": "[1]; [4]", "result": "increases"},
      {"measurement": "degradation_or_half_life", "setting": "CHX chase, western blot; [4]", "result": "decreases"}
    ]},
    {"protein": "RALY: siOGT (protein) parent chain: MSLKLQASNVTNKNDPKSINSRVFIGNLNTALVKKSDVETIFSKYGRVAGCSVHKGYAFVQYSNERHARAAVLGENGRVLAGQTLDINMAGEPKPDRPKGLKRAASAIYSGYIFDYDYYRDDFYDRLFDYRGRLSPVPVPRAVPVKRPRVTVPLVRRVKTNVPVKLFARSTAVTTSSAKIKLKSSELQAIKTELTQIKSNIDALLSRLEQIAAEQKANPDGKKKGDGGGAGGGGGGGGSGGGGSGGGGGGGSSRPPAPQENTTSEAGLPQGEARTRDDGDEEGLLTHSEEELEHSQDTDADDGALQ", "values": [
      {"measurement": "expression_or_secretion", "setting": "[2]; glycan lost, control: untreated / control-transfected cells", "result": "decreases"}
    ]},
    {"protein": "RALY: PUG (protein) parent chain: MSLKLQASNVTNKNDPKSINSRVFIGNLNTALVKKSDVETIFSKYGRVAGCSVHKGYAFVQYSNERHARAAVLGENGRVLAGQTLDINMAGEPKPDRPKGLKRAASAIYSGYIFDYDYYRDDFYDRLFDYRGRLSPVPVPRAVPVKRPRVTVPLVRRVKTNVPVKLFARSTAVTTSSAKIKLKSSELQAIKTELTQIKSNIDALLSRLEQIAAEQKANPDGKKKGDGGGAGGGGGGGGSGGGGSGGGGGGGSSRPPAPQENTTSEAGLPQGEARTRDDGDEEGLLTHSEEELEHSQDTDADDGALQ", "values": [
      {"measurement": "degradation_or_half_life, half_life", "setting": "[3]", "result": "increases"},
      {"measurement": "expression_or_secretion", "setting": "[2]; [5]", "result": "increases"}
    ]},
    {"protein": "RALY: TMG (protein) parent chain: MSLKLQASNVTNKNDPKSINSRVFIGNLNTALVKKSDVETIFSKYGRVAGCSVHKGYAFVQYSNERHARAAVLGENGRVLAGQTLDINMAGEPKPDRPKGLKRAASAIYSGYIFDYDYYRDDFYDRLFDYRGRLSPVPVPRAVPVKRPRVTVPLVRRVKTNVPVKLFARSTAVTTSSAKIKLKSSELQAIKTELTQIKSNIDALLSRLEQIAAEQKANPDGKKKGDGGGAGGGGGGGGSGGGGSGGGGGGGSSRPPAPQENTTSEAGLPQGEARTRDDGDEEGLLTHSEEELEHSQDTDADDGALQ", "values": [
      {"measurement": "other: ubiquitination", "setting": "[1]; glycan gained, control: untreated", "result": "decreases"},
      {"measurement": "degradation_or_half_life, half_life", "setting": "[3]", "result": "increases, approximately 40 (Hep3B), 32 (Huh7) vs approximately 16 (Hep3B), 15 (Huh7)"},
      {"measurement": "expression_or_secretion", "setting": "[2]; glycan gained, control: TRIM27-overexpressing cells without TMG", "result": "increases"},
      {"measurement": "expression_or_secretion", "setting": "[2]; [5]", "result": "increases"}
    ]},
    {"protein": "RALY: OE-OGT (protein) parent chain: MSLKLQASNVTNKNDPKSINSRVFIGNLNTALVKKSDVETIFSKYGRVAGCSVHKGYAFVQYSNERHARAAVLGENGRVLAGQTLDINMAGEPKPDRPKGLKRAASAIYSGYIFDYDYYRDDFYDRLFDYRGRLSPVPVPRAVPVKRPRVTVPLVRRVKTNVPVKLFARSTAVTTSSAKIKLKSSELQAIKTELTQIKSNIDALLSRLEQIAAEQKANPDGKKKGDGGGAGGGGGGGGSGGGGSGGGGGGGSSRPPAPQENTTSEAGLPQGEARTRDDGDEEGLLTHSEEELEHSQDTDADDGALQ", "values": [
      {"measurement": "expression_or_secretion", "setting": "[2]; [5]", "result": "increases"}
    ]},
    {"protein": "RALY: TMG or PUG (protein) parent chain: MSLKLQASNVTNKNDPKSINSRVFIGNLNTALVKKSDVETIFSKYGRVAGCSVHKGYAFVQYSNERHARAAVLGENGRVLAGQTLDINMAGEPKPDRPKGLKRAASAIYSGYIFDYDYYRDDFYDRLFDYRGRLSPVPVPRAVPVKRPRVTVPLVRRVKTNVPVKLFARSTAVTTSSAKIKLKSSELQAIKTELTQIKSNIDALLSRLEQIAAEQKANPDGKKKGDGGGAGGGGGGGGSGGGGSGGGGGGGSSRPPAPQENTTSEAGLPQGEARTRDDGDEEGLLTHSEEELEHSQDTDADDGALQ", "values": [
      {"measurement": "degradation_or_half_life", "setting": "CHX chase, western blot; glycan gained, control: untreated RALYKO-WT", "result": "increases"}
    ]}
  ]
}
